Test results reported in patent publication US10646600B2, “HER2 polypeptides useful for imaging and monitoring tumors and cancers” (GE HEALTHCARE LIMITED, priority 2013, dated 2020).
Where two headings read alike, the source gives them in different places.

What was measured:
human HER2 = molecular target: T1, human HER2 (Homo sapiens, UniProt P04626); experiment: Surface Plasmon Resonance, human HER2-ECD-Fc; type: binding
T1 construct: Human, rhesus and rat HER2-ECD-Fc (SINO Biological, Beijing, China, Cat. Nr: 10004-H02H, 90020-K02H, and 80079-R02H); Fc (C); purchased SINO Biological 10004-H02H
Protocol: To characterize the affinity of [^19F]GE-226[SEQ ID NO 1] to HER2 protein, Surface Plasmon Resonance studies were conducted. Human, rhesus and rat HER2-ECD-Fc (SINO Biological, Beijing, China, Cat. Nr: 10004-H02H, 90020-K02H, and 80079-R02H), as well as human HER2-ECD-Fc-6×His (R&D Systems, Minneapolis, Minn., Cat. Nr: 1129-ER) and p95HER2 ECD-Fc-6×His (Syngene, Cambridge, United Kingdom) were diluted with 50 mM sodium acetate pH 4.5 (Biacore (GE Healthcare, Buckinghamshire, UK) coupling buffer) to a final concentration of 10 μg/mL. Antigen coupling to Biacore sensor chip CMS (Cat. Nr: BR-1005-30) was done according to amine coupling protocol from the instrument manual (Syngene). HBS-EP buffer (10 mM HEPES pH 7.4, 150 mM NaCl, 3 mM EDTA and 0.005% surfactant P20; GE Healthcare, Little Chalfont, United Kingdom, Cat. Nr: BR-1006-69) was used as running buffer and as solvent for the substances. The affinity studies were performed using a Biacore T100 (GE Healthcare). [^19F]GE-226 was diluted in HBS-EP buffer to 50 nM, 25 nM, 12.5 nM, 6.25 nM, 3.125 nM, 1.56 nM, 0.78 nM, 0.39 nM, 0.195 nM, 0.097 nM, 0.049 nM and 0 nM. The flow cells of the first chip comprised of blank, human HER2-ECD-Fc-6×His, p95HER2-ECD-Fc-6×His batch I and p95HER2-ECD-Fc-6×His batch II. The flow cells on the second chip contained blank, human HER2-ECD-Fc, rhesus HER2-ECD-Fc and rat HER2 ECD-Fc. The immobilization of the proteins was validated with protein-A (Sigma-Aldrich, St. Louis, Mo., Cat. Nr: P6031) and anti-human IgG antibody (Perkin Elmer, Waltham, Mass., Cat. Nr: NEF803001EA). [^19F]GE-226[SEQ ID NO 1] was pumped in duplicate over cells in randomized order for 60 sec at 50 μL/min flow rate followed by 120 sec of HBS-EP to monitor dissociation. This was followed by regeneration of the chip with 50 mM sodium hydroxide for 30 sec at 30 μL/min flow rate followed by 60 sec run of HBS-EP to stabilize the surface. Kinetic calculations were performed using Langmuir 1:1 binding model and simultaneous calculation of association and dissociation phase.

SKOV-3 xenografts = experiment: PET-CT imaging and kinetic modeling, SKOV-3 xenografts; type: in vivo, mice
Protocol: […] […] To investigate response to HSP90 inhibition, SKOV-3 xenograft-bearing mice were treated with 50 mg/kg NVP-AUY922 or equivalent volume of vehicle (˜5 μL/g body weight; 10% DMSO and 5% Tween-20 in PBS) q.d. i.p. for three days. 24 h after the last treatment, animals were used for PET imaging.
Mice were anesthetized through isoflurane inhalation and scanned on a dedicated small animal PET-CT scanner (Siemens Multimodality Inveon, Erlangen, Germany). Low dose CT scans were first acquired (80 kVp, 0.5 mA, 220 degree rotation, 600 ms per degree exposure time, 80 μm reconstruction pixel size) for PET attenuation correction and to obtain an anatomical reference. PET images were acquired following a bolus i.v. injection of approximately 3.7 MBq [^18F]GE-226 in the tail vein. Dynamic emission scans were acquired in list mode format over 60 minutes. The acquired data were sorted into 0.5-mm sinogram bins and 19 time frames for image reconstruction by filtered back projection (4×15 seconds and 4×60 seconds followed by 11×300 seconds). The Siemens Inveon Research Workplace software was used for visualization of radiotracer uptake. 30 to 60-minute cumulative images of the dynamic data were employed to define 3-dimensional (3D) regions of interest (ROI). Arterial input function was estimated by drawing ROIs over the center of the heart cavity using 0.25 to 2 minutes of cumulative images. The count densities were averaged for all ROIs at each time point to obtain time versus radioactivity curves (TAC). Tumor TACs were normalized to injected dose measured by a VDC-304 dose calibrator (Veenstra Instruments, Joure, Netherlands) and normalized uptake was expressed as percentage injected dose per mL tissue (NUV; % ID/mL). Normalized uptake of radiotracer at 60 minutes (NUV60) was used for comparisons. For qualitative image visualization, cumulative images of the dynamic data (30 to 60 min) were also iteratively reconstructed (OSEM3D).
Kinetic analysis of PET data was performed applying a standard two-tissue irreversible compartmental model to fit each tumor TAC with the corresponding image-derived plasma TAC as input function (IF) to estimate K1 (mL/cm^3/min), k2, (1/min) and k3 (1/min) and the blood vascular component Vb (mL blood/mL tissue; unitless). The irreversible uptake rate Ki (mL/cm^3/min) was computed as K1×k3/(k2+k3). To estimate the kinetic parameters the measured tumor TAC (tTAC) was modeled as tTAC(t)=(1−Vb)h(t)⊗IF(t)+VbIF(t) with h(t) indicating the unknown tissue impulse function and ⊗ the convolution operator. The parameter vector p=[K1, k2, k3, Vb] was estimated with the standard Weighted Non-Linear Least Squares (WNLLS) by minimizing the Weighted Residual Sum of Squares (WRSS) function

“[^18F]GE-226: HER2-binding 18F-radiolabelled Affibody molecule ZHER2:2891” was tested, and the Kd (human HER2; human HER2, text, read-out: KD) was 0.076 nM, the NUV60 (SKOV-3 xenografts; PET, 60 minutes) was 18.7±2.4 % ID/mL and the “tumor tracer uptake at 2 h” value (SKOV-3 xenografts; SKOV-3 xenografts, 2 h versus 1 h) was “higher at 2 h”. For the same substance, the “Ki (net irreversible uptake rate)” value (SKOV-3 xenografts; two-tissue irreversible compartmental model) was 0.036±0.0065 mL/cm^3/min.
“[^19F]GE-226: cold unlabeled non-radioactive 19F analogue of the tracer, used for SPR and blocking” was tested, and the Off-rate koff (human HER2; Human HER2) was 0.00131 s⁻¹, the Rmax (human HER2; Human HER2) was 133.5 and the On-rate kon (human HER2; Human HER2, Langmuir 1:1 binding model) was 1.73e+07 M⁻¹ s⁻¹. For the same substance, the “Chi-Square χ^2” value (human HER2; Human HER2, fit statistic) was 0.607, the U-value (human HER2; Human HER2, fit statistic) was 3 and the Kd (human HER2; Human HER2, read-out: Affinity KD) was 0.0758 nM. The Kd (human HER2; human HER2, text, read-out: KD) was 0.076 nM, the “binding to human HER2 (words)” value (human HER2; listed as GE-226) was “binds with high affinity” and the “binding to human HER2 (words)” value (human HER2; listed as [^19F]-GE-226) was “high affinity binding”. The “NUV60 of [18F]GE-226 in blocked tumors” value (SKOV-3 xenografts; 30 mg/kg [19F]GE-226 i.v. 20 minutes prior to PET scan) was 7.1±1.6 % ID/mL.
